# Tested on: MS2 coat protein
# Assay: apparent KD of MS2 coat protein; higher = weaker reporter binding
# Settings: Eterna round: R107
# Method in brief: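 Illumina sequencing clusters were used for on-chip transcription of designed RNA switches. Titration with SNAP-549-labelled MS2 coat protein followed, in twofold steps from 0.7 or 1.5 nM to 3 µM in 100 mM Tris-HCl pH 7.5, 80 mM KCl, 4 mM MgCl2, without or with constant ligand. Apparent KD is each design's median of fits to normalised cluster binding curves.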
# [1] = input ligand: theophylline 20 uM
# [2] = input ligand: theophylline 2 mM
# [3] = input ligand: tryptophan 2.4 mM
Sequence,apparent KD of MS2 coat protein (input ligand: arginine 13.2 mM) [nM],apparent KD of MS2 coat protein [1] [nM],apparent KD of MS2 coat protein [2] [nM],apparent KD of MS2 coat protein [3] [nM],apparent KD of MS2 coat protein (input ligand: none) [nM]
GCUAGGUCAUCGGCCGCCACUAACGAUGGCUCCAACAUGAGGAUCACCCAUGUGCCACAUGCGCAUAGGACCGGGAUGACCUAGC [SSTB NP+V+V2 #3],11.3,16.2,14.1,,
CACAAUUUGUCGGCCGCCACUAAGGUAACUUUUCUCACAUGAGGAUCACCCAUGUGCCCGAAACUUAGGACCGGGAUAAUGGGUG [Usteraor],35.9,146,183,,
AGCAUGUUAUCAGAUACCAGACAUCUUUUUUUACGUAUUACAUGAGGAUCACCCAUGUUGGUCCCUUGGCAGCUGAAAUAUUUCA [JR_Nu_SSTheophyB_Sub022],167,269,,219,
UUAAUUAUAUAUUAUUUAAUAUUUACAGAAGGAGCGUGAUAAAACACAGGUAGGUCGCUGAAGGGAACAUGAGGAUCACCCAUGU [AstrosSSArgA#20],28.6,41.6,60.1,38.9,28.9
GCUGUAAGUGCAGAUACCAGCAGGUGAUAUUUCUAAUGACAUGAGGAUCACCCAUGUAACUGCCCUUGGCAGCUGCACUUACAGC [SSTHB #8],48.5,32.1,,59.6,
AAAAUAAACUCGGCCGCCACUCAACGGACCCUUUGGACAUGAGGAUCACCCAUGUAUUUUGGAAAGAGGACCGGGAGAAAUAAAA [Exclusion - Trytophan B],8.32,17.8,11.7,12.2,8.35
GGAUAGGACAGAAGGAGCGACAUCGCCGAAAGGCUGGUAAGAUCACAUGAGGAUCACCCAUGUCAGGUAGGUCGCUGUCCUAUCG [ArgXB 11 #Zipper #MS2Left #StaticStem #Blueprint],92.2,360,627,308,283
GCUAGGUCAUCGGCCGCCACUAACGAAGGUUCGAACAUGAGGAUCACCCAUGUGCCACAUGCGCAUAGGACCGGGAUGACCUAGC [SSTB NP+V+V2 #7 +-Same Structure],13.8,26.2,20.8,11.4,17.3
GGCCCUGCGAGCGCUCGCAGGGCCGCGGAUACCAGCGAGGUCCAUCGCCCUUGGCAGCCGAACAUGAGGAUCACCCAUGUCGGUA [#1 Same State - Theophylline A Attempt #13 (HarryS)],7.87,12.9,18.3,9.44,9.84
CAUUAUGUAACUGAUACCAGUGUACUGACAUGAGGAUCACCCAUGUUGGGUUUUGUUGUACACCCUUGGCAGCAGAAUCAUAAUG [AstrosExyTheB#2],43.3,70.3,,57.8,
UAGGACAUGAGGAUCACCCAUGUUGUACGGCGAGGACCGGUACGGCCGCCACUCGAGGCGUAAGUAGUAAAGAAUCUGAUUCAAU [theeternabot_sameState_MS2_Trp_A_4],13.7,40.9,20.7,,
UUUGUAAUUGUCUGGUAGAUUUAUUUAUUUCGAGGACCGGUACGGCCGCCACUCGUUAAUUACAUGAGGAUCACCCAUGUUAGCU [JR_ExcTryptoA_Sub008],14.1,17.1,15,,
ACGGAUCGGAAACGAUCCGCGGCAAGGGUACGAGGACCGGUACGGCCGCCACUCGGCUAACAUGAGGAUCACCCAUGUCCGAAGA [ETA NP+V+V2 #8],41.9,59.7,72.2,72.2,60.7
ACAUGAGGAUCACCCAUGUAAUCCUCUGAAGGAGCGAGAAAUAACUCAGGUAGGUCGCAGUUCAAAACAUGAGGAUCACCCAUGU [Exclusion Arginine A GF 9],28.9,52.6,46.2,51.1,43.3

# Source: the supplement of paper PMC9170038
